We go through one protein from article PMC3357956 (Nature structural & molecular biology, 2011).

This data set concerns the molecule itself. The experiment in a line: thioflavin T fluorescence.

Consider QGGFGNSRGGGAGLGNNQGSNMGGGMNFGAFSINPAMMAAAQAALQ (peptide, UniProt Q13148 286-331, looked up) [wild-type TDP46mer (synthetic TDP-43 peptide Gln286-Gln331)], for which the binding result is on record as “binds”.
